This note sets out measurements from US20230331827A1, “POTASSIUM CHANNEL INHIBITORS” (priority 2017, published 2023).

A value given as a limit tells only on which side of the number the result lay.

For test [1], the target named is human Kv1.1 (human) (UniProt Q09470). The test is described as follows: cell-based or functional assay.
Test [2] concerns the target human Kv1.3 (human) (UniProt P22001). The test is described as follows: cell-based or functional assay.
Test [3] has as its target trypsin. The test is described as follows: TRF, 2.4 ug/mL Fab on trypsin.
In test [4] the target is trypsin. Briefly: TRF, 0.6 ug/mL Fab on trypsin.
Test [5] addresses trypsin. Briefly: TRF, 10 ug/mL Fab on trypsin.
The target of test [6] is β-galactosidase. Briefly: phage TRF on β-galactosidase.
Chain of β-galactosidase (P00722 2-1024): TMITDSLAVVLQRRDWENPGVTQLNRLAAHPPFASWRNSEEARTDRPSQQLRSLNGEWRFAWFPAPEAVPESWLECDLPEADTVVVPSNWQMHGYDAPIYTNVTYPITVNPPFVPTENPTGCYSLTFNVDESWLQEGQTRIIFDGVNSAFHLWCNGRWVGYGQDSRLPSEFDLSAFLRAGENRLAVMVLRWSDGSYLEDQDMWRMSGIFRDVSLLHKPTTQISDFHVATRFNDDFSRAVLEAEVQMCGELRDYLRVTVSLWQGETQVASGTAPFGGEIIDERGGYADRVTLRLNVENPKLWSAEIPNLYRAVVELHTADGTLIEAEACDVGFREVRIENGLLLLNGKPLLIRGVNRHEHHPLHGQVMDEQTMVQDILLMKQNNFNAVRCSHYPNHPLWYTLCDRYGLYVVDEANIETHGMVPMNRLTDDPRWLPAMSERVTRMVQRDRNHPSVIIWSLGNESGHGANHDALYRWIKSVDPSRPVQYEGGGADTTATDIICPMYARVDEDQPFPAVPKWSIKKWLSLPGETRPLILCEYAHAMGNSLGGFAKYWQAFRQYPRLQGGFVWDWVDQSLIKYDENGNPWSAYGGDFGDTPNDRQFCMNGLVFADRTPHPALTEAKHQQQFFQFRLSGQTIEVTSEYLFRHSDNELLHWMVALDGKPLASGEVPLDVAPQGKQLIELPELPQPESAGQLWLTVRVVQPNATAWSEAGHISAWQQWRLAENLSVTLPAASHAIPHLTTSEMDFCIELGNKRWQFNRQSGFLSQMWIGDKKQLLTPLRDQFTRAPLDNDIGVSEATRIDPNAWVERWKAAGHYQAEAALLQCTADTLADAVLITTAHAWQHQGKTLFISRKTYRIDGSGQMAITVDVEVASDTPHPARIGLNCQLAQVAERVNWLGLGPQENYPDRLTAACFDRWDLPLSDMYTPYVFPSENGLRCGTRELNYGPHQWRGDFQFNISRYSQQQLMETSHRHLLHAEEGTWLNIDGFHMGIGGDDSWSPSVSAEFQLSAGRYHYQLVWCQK

Chain of human Kv1.3 (human) (P22001 whole entry): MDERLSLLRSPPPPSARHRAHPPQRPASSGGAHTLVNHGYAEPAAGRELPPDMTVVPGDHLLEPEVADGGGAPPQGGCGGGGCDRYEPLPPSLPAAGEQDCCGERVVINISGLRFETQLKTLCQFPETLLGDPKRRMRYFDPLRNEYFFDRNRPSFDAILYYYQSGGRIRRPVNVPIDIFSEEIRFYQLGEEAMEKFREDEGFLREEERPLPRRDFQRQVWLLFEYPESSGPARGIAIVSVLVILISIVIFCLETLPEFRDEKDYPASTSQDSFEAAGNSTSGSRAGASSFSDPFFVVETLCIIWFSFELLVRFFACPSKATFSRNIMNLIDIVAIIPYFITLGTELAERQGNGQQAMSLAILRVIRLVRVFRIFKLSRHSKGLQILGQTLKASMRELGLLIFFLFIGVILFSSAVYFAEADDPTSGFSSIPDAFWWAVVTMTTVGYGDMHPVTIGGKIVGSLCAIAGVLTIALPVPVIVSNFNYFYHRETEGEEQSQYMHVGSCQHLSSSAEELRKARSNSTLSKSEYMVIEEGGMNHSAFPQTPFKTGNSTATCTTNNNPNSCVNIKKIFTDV
Chain of human Kv1.1 (human) (Q09470 whole entry): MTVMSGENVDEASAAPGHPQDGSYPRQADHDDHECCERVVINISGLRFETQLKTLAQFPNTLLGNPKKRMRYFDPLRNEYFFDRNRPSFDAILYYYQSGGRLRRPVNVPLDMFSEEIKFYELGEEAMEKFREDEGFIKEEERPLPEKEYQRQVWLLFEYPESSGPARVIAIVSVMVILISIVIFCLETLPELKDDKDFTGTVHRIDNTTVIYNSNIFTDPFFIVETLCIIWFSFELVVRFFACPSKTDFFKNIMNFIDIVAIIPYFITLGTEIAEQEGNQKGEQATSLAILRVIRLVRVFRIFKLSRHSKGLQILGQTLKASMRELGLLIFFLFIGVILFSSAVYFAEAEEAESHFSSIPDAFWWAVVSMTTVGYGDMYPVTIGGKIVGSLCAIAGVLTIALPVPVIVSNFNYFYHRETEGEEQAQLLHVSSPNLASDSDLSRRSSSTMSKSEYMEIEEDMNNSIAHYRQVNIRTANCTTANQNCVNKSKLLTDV

B1: KB_A12_HsTx1 R14A (antibody, V domains shown)
VH: EVQLVESGGGLVRPGGSLRLSCAASGFTFSSYAMSWVRQAPGKGLEWVSAISGSGGSTYYADSVKGRFTISRDNTKNSLYLQMTSLRADDTAFYYCVKDFGPGYGTGWFDYWGPGTLVTVSS
VL: NWYQQLPGKAPKLLIYAAGRASCRTPKDCADPCAKETGCPYGKCMNRKCKCNRCANSGVSDRFSAAKSGTSASLAINGLRSEDEADYYCAAWDDSLNGYVFGTGTKLTVLG
As for B1, the Kv1.1 IC50, QPatch patch clamp in test [1] came out at 2990 nM. In test [2], this molecule had a Fold difference (Kv1.1 IC50 against Kv1.3 IC50) of over 3500 fold and a Kv1.3 IC50, QPatch patch clamp of 0.9 nM.

B2: KB_B02 Fab (Fab, V domains shown)
VH: EVQLVESGGGLVRPGGSLRLSCAASGFTFSSYAMSWVRQAPGKGLEWVSAISGSGGSTYYADSVKGRFTISRDNTKNSLYLQMTSLRADDTAFYYCVKDFGPGYGTGWFDYWGPGTLVTVSS
VL: AVNWYQQLPGKAPKLLIYAAVGCPRILMRCKQDSDCLAGCVCGPNGFCGTGSGIPERFSGSKSGNTASLTISGLQAEDEGDYYCAAWDDSLSGPVFGGGTKLTVLG
Take B2: the TRF signal in test [3] came to 15900; in test [4] it was 2340; in test [5] it was 56600.

B3: KB_A12_B-gal_H02 (scFv, V domains shown)
VH: EVQLVESGGGLVRPGGSLRLSCAASGFTFSSYAMSWVRQAPGKGLEWVSAISGSGGSTYYADSVKGRFTISRDNTKNSLYLQMTSLRADDTAFYYCVKDFGPGYGTGWFDYWGPGTLVTVSS
VL: AVNWYQQLPGKAPKLLIYAAGRCEQTSVIRRHCKQDSDCLAGCVCGPNGFCGANSGVSDRFSAAKSGTSASLAINGLRSEDEADYYCAAWDDSLNGYVFGTGTKLTVLG
Molecule B3 showed a TRF signal in test [6] of 501000.

B4: KB_A12_B-gal_E05 (scFv, V domains shown)
VH: EVQLVESGGGLVRPGGSLRLSCAASGFTFSSYAMSWVRQAPGKGLEWVSAISGSGGSTYYADSVKGRFTISRDNTKNSLYLQMTSLRADDTAFYYCVKDFGPGYGTGWFDYWGPGTLVTVSS
VL: AVNWYQQLPGKAPKLLIYAAGRCRETSSLRRPCKQDSDCLAGCVCGPNGFCGANSGVSDRFSAAKSGTSASLAINGLRSEDEADYYCAAWDDSLNGYVFGTGTKLTVLG
Molecule B4 came in with a TRF signal in test [6] of 312000.

B5: KB_C08 Fab (Fab, V domains shown)
VH: EVQLVESGGGLVRPGGSLRLSCAASGFTFSSYAMSWVRQAPGKGLEWVSAISGSGGSTYYADSVKGRFTISRDNTKNSLYLQMTSLRADDTAFYYCVKDFGPGYGTGWFDYWGPGTLVTVSS
VL: AVNWYQQLPGKAPKLLIYAAAVCPRILMRCKQDSDCLAGCVCGPNGFCGTRSGIPERFSGSKSGTSAFLAISGLRSEDEADYYCAAWDDSLSGVVFGGGTKLTVLG
On to B5, for which the values for the TRF signal in test [3], in test [4] and in test [5] were 131000, 51100 and 183000, respectively.

B6: KB_A12_B-gal_F11 (scFv, V domains shown)
VH: EVQLVESGGGLVRPGGSLRLSCAASGFTFSSYAMSWVRQAPGKGLEWVSAISGSGGSTYYADSVKGRFTISRDNTKNSLYLQMTSLRADDTAFYYCVKDFGPGYGTGWFDYWGPGTLVTVSS
VL: AVNWYQQLPGKAPKLLIYAAGRCHETAQIRRRCKQDSDCLAGCVCGPNGFCGANSGVSDRFSAAKSGTSASLAINGLRSEDEADYYCAAWDDSLNGYVFGTGTKLTVLG
For B6, in test [6], the TRF signal was found to be 531000.

B7: KB_A12_B-gal_F09 (scFv, V domains shown)
VH: EVQLVESGGGLVRPGGSLRLSCAASGFTFSSYAMSWVRQAPGKGLEWVSAISGSGGSTYYADSVKGRFTISRDNTKNSLYLQMTSLRADDTAFYYCVKDFGPGYGTGWFDYWGPGTLVTVSS
VL: AVNWYQQLPGKAPKLLIYAAGRCIATSHIRRHCKQDSDCLAGCVCGPNGFCGANSGVSDRFSAAKSGTSASLAINGLRSEDEADYYCAAWDDSLNGYVFGTGTKLTVLG
Molecule B7 returned a TRF signal in test [6] of 258000.

B8: KB_A12_B-gal_H07 (scFv, V domains shown)
VH: EVQLVESGGGLVRPGGSLRLSCAASGFTFSSYAMSWVRQAPGKGLEWVSAISGSGGSTYYADSVKGRFTISRDNTKNSLYLQMTSLRADDTAFYYCVKDFGPGYGTGWFDYWGPGTLVTVSS
VL: AVNWYQQLPGKAPKLLIYAAGRCTQTALIRRRCKQDSDCLAGCVCGPNGFCGANSGVSDRFSAAKSGTSASLAINGLRSEDEADYYCAAWDDSLNGYVFGTGTKLTVLG
For B8, in test [6], the TRF signal is 62000.

B9: KB_A11 Fab (Fab, V domains shown)
VH: EVQLVESGGGLVRPGGSLRLSCAASGFTFSSYAMSWVRQAPGKGLEWVSAISGSGGSTYYADSVKGRFTISRDNTKNSLYLQMTSLRADDTAFYYCVKDFGPGYGTGWFDYWGPGTLVTVSS
VL: YLNWYQQKPGKAPKLLIYAAEICPRILMRCKQDSDCLAGCVCGPNGFCGPSSGIPARFSGSGYGTDFTLTINNIESEDAAYYFCLQHDNFPYTFGQGTKVEIKR
With B9, the TRF signal in test [3] worked out at 141000; in test [4], 48900; in test [5], 212000.

B10: KB_A12_B-gal_E04 (scFv, V domains shown)
VH: EVQLVESGGGLVRPGGSLRLSCAASGFTFSSYAMSWVRQAPGKGLEWVSAISGSGGSTYYADSVKGRFTISRDNTKNSLYLQMTSLRADDTAFYYCVKDFGPGYGTGWFDYWGPGTLVTVSS
VL: AVNWYQQLPGKAPKLLIYAAGRCLATTSIRRPCKQDSDCLAGCVCGPNGFCGANSGVSDRFSAAKSGTSASLAINGLRSEDEADYYCAAWDDSLNGYVFGTGTKLTVLG
In test [6], B10 registered a TRF signal of 523000.

B11: KB_C10 Fab (Fab, V domains shown)
VH: EVQLVESGGGLVRPGGSLRLSCAASGFTFSSYAMSWVRQAPGKGLEWVSAISGSGGSTYYADSVKGRFTISRDNTKNSLYLQMTSLRADDTAFYYCVKDFGPGYGTGWFDYWGPGTLVTVSS
VL: AVNWYQQLPGKAPKLLIYAAGPCPRILMRCKQDSDCLAGCVCGPNGFCGADSGVSDRFSGSKSGTSASLAITGLQAEDEGDYYCAAWDDSLNGLVFGGGTKVTVLG
Regarding B11, the TRF signal stood at 146000 in test [3], 41700 in test [4] and 238000 in test [5].

B12: KB_C07 Fab (Fab, V domains shown)
VH: EVQLVESGGGLVRPGGSLRLSCAASGFTFSSYAMSWVRQAPGKGLEWVSAISGSGGSTYYADSVKGRFTISRDNTKNSLYLQMTSLRADDTAFYYCVKDFGPGYGTGWFDYWGPGTLVTVSS
VL: AVNWYQQLPGKAPKLLIYAAVGCPRILMRCKQDSDCLAGCVCGPNGFCGSASGVSDRFSGSKSGTSASLAISGLRSEDEADYYCASWDDSLRGYVFGTGTKVTVLG
On to B12, for which the TRF signal was found to be 247000 in test [3], 153000 in test [4] and 276000 in test [5].

B13: KB_A10 Fab (Fab, V domains shown)
VH: EVQLVESGGGLVRPGGSLRLSCAASGFTFSSYAMSWVRQAPGKGLEWVSAISGSGGSTYYADSVKGRFTISRDNTKNSLYLQMTSLRADDTAFYYCVKDFGPGYGTGWFDYWGPGTLVTVSS
VL: AVNWYQQLPGKAPKLLIYAAGGCPRILMRCKQDSDCLAGCVCGPNGFCGSNSGVPDRFSGSKSGNTASLTISGLQSEDEADYYCAAWDDSLSGVVFGGGTQLTVLG
In the case of B13, the TRF signal in test [3] turned out to be 71900; in test [4], 14600; in test [5], 68700.

B14: KB_A12_B-gal_G05 (scFv, V domains shown)
VH: EVQLVESGGGLVRPGGSLRLSCAASGFTFSSYAMSWVRQAPGKGLEWVSAISGSGGSTYYADSVKGRFTISRDNTKNSLYLQMTSLRADDTAFYYCVKDFGPGYGTGWFDYWGPGTLVTVSS
VL: AVNWYQQLPGKAPKLLIYAAGRCLDTVNLRRRCKQDSDCLAGCVCGPNGFCGANSGVSDRFSAAKSGTSASLAINGLRSEDEADYYCAAWDDSLNGYVFGTGTKLTVLG
Turning to B14, the TRF signal in test [6] was determined as 529000.

B15: KB_A12_B-gal_H03 (scFv, V domains shown)
VH: EVQLVESGGGLVRPGGSLRLSCAASGFTFSSYAMSWVRQAPGKGLEWVSAISGSGGSTYYADSVKGRFTISRDNTKNSLYLQMTSLRADDTAFYYCVKDFGPGYGTGWFDYWGPGTLVTVSS
VL: AVNWYQQLPGKAPKLLIYAAGRCNQTMSIRRPCKQDSDCLAGCVCGPNGFCGANSGVSDRFSAAKSGTSASLAINGLRSEDEADYYCAAWDDSLNGYVFGTGTKLTVLG
In the case of B15, the TRF signal in test [6] came to 518000.

B16: KB_C09 Fab (Fab, V domains shown)
VH: EVQLVESGGGLVRPGGSLRLSCAASGFTFSSYAMSWVRQAPGKGLEWVSAISGSGGSTYYADSVKGRFTISRDNTKNSLYLQMTSLRADDTAFYYCVKDFGPGYGTGWFDYWGPGTLVTVSS
VL: AVNWYQQLPGKAPKLLIYAAGRCPRILMRCKQDSDCLAGCVCGPNGFCGGGSGVPDRFSGSIDSSSNSASLTISGLRAEDEADYYCQSYDSSNHWVFGGGTKLTVLG
Turning to B16, the values for the TRF signal in test [3], in test [4] and in test [5] were 205000, 46800 and 289000, respectively.

B17: KB_B01 Fab (Fab, V domains shown)
VH: EVQLVESGGGLVRPGGSLRLSCAASGFTFSSYAMSWVRQAPGKGLEWVSAISGSGGSTYYADSVKGRFTISRDNTKNSLYLQMTSLRADDTAFYYCVKDFGPGYGTGWFDYWGPGTLVTVSS
VL: AVNWYQQLPGKAPKLLIYAAAGCPRILMRCKQDSDCLAGCVCGPNGFCGTRSGVSDRFSGSKSGTSASLAISGLRSEDEADYYCAAWDDSLRAYVFGTGTKLTVLG
In the case of B17, the TRF signal in test [3] amounted to 153000; in test [4] it was 54800; in test [5] it was 257000.

B18: KB_A12_B-gal_F02 (scFv, V domains shown)
VH: EVQLVESGGGLVRPGGSLRLSCAASGFTFSSYAMSWVRQAPGKGLEWVSAISGSGGSTYYADSVKGRFTISRDNTKNSLYLQMTSLRADDTAFYYCVKDFGPGYGTGWFDYWGPGTLVTVSS
VL: AVNWYQQLPGKAPKLLIYAAGRCRTTSTIRRRCKQDSDCLAGCVCGPNGFCGANSGVSDRFSAAKSGTSASLAINGLRSEDEADYYCAAWDDSLNGYVFGTGTKLTVLG
For the molecule B18, in test [6], the TRF signal was 476000.

B19: KB_A12 Fab (Fab, V domains shown)
VH: EVQLVESGGGLVRPGGSLRLSCAASGFTFSSYAMSWVRQAPGKGLEWVSAISGSGGSTYYADSVKGRFTISRDNTKNSLYLQMTSLRADDTAFYYCVDFGPGYGTGWFDYWGPGTLVTVSS
VL: AVNWYQQLPGKAPKLLIYAAGRCPRILMRCKQDSDCLAGCVCGPNGFCGANSGVSDRFSAAKSGTSASLAINGLRSEDEADYYCAAWDDSLNGYVFGTGTKLTVLG
For the molecule B19, the TRF signal in test [3] worked out at 222000; in test [4], 102000; in test [5], 253000.
